What was measured:
Experiment in all cases: ITC; 25 °C, MicroCal PEAQ-ITC; 50 μM protein in the cell titrated with 17 injections of 750 μM peptide; in the absence of NAD+; 'one set of binding sites' model
[1] = target: SIRT6 (human SIRT6 residues 1-355) (human) (UniProt Q8N6T7)
[2] = target: SIRT5Δ (human SIRT5 residues 34-302) (human) (UniProt Q9NXA8)
[3] = target: CobBΔ (E. coli CobB residues 38-279) (E. coli) (UniProt P75960)
[4] = target: SIRT1Δ (human SIRT1 NAD+-dependent deacetylase domain 234-510 with C-terminal regulatory region 641-665) (human) (UniProt Q96EB6)
[5] = target: SIRT2Δ (human SIRT2 residues 34-356) (human) (UniProt Q8IXJ6)
Sequence of SIRT2Δ (human SIRT2 residues 34-356) (human) (Q8IXJ6 34-356, stated change not applied): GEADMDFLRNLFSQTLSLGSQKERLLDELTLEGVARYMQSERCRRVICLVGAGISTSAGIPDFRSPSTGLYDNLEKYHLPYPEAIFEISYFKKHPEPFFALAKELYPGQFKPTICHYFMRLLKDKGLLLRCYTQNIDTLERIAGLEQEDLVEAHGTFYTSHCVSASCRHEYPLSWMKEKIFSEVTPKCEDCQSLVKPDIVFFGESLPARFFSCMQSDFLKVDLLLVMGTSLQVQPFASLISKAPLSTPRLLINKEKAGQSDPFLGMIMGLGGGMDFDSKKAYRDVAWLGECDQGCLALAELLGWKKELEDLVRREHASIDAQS

Sequence of SIRT6 (human SIRT6 residues 1-355) (human) (Q8N6T7 whole entry, the tested form may be a part): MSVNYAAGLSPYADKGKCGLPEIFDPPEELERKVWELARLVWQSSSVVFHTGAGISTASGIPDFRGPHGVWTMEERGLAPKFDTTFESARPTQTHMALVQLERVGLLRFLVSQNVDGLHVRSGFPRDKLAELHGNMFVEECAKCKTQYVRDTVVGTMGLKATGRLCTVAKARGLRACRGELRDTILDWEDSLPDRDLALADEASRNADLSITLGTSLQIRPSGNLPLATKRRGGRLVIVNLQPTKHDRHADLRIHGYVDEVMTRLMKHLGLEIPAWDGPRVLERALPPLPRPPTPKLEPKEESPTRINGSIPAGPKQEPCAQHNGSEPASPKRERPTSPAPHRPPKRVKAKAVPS
Sequence of SIRT5Δ (human SIRT5 residues 34-302) (human) (Q9NXA8 34-302, stated change not applied): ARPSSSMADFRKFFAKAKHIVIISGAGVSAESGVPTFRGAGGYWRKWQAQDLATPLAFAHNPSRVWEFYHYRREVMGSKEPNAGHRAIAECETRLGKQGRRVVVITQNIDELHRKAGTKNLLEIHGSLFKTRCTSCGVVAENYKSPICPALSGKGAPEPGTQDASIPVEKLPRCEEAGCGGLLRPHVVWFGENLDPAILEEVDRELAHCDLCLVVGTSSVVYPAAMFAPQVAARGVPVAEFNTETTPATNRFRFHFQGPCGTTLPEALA

Substance | Kd [1] | Kd [2] | Kd [3] | Kd [4] | Kd [5]
histone H3(1-15)K9ac peptide (from UniProt P68431 2-16) | 102000 nM | 153000 nM | – | – | –
histone H3(1-15)K9dod peptide (from UniProt P68431 2-16) | – | – | 60 nM | 4900 nM | 6900 nM
histone H3(1-15)K9myr peptide (from UniProt P68431 2-16) | – | – | 50 nM | – | 800 nM
histone H3(1-15)K9pr peptide (from UniProt P68431 2-16) | – | – | 800 nM | – | 105000 nM

Further lines, results first:

Kd [1] | Kd [2] | Kd [3] | Kd [4] | Kd [5] | Substance
– | – | 200 nM | – | – | histone H3(1-15)K9bu peptide (from UniProt P68431 2-16)
– | – | – | 45400 nM | – | histone H3(1-15)K9cr peptide (from UniProt P68431 2-16)
54400 nM | – | 200 nM | 7000 nM | – | histone H3(1-15)K9dec peptide (from UniProt P68431 2-16)
– | – | 300 nM | – | – | histone H3(1-15)K9hex peptide (from UniProt P68431 2-16)
700 nM | – | 200 nM | – | – | histone H3(1-15)K9oct peptide (from UniProt P68431 2-16)
